Data as given in patent US20130116201, “USE OF PEPTIDES AS TRANSPORTERS […] FOR THE INTERNALIZATION OF MOLECULES OF […] INTO TARGET CELLS” (UNIVERSITE JOSEPH FOURIER, published 2013).

How the values were obtained:
ZEBRA Z7 = target: T1, ZEBRA Z7 (Epstein-Barr virus, UniProt P03206 P03206:170-195); experiment: EMSA; no dimerization domain; conditions: tags: N-terminal His6 (pET15b); label: biotin
T1 chain: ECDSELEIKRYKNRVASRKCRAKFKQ

ZEBRA Z5 = ZEBRA Z5 (Epstein-Barr virus, UniProt P03206 P03206:140-195); experiment: EMSA; no dimerization domain; conditions: tags: N-terminal His6 (pET15b); label: biotin
ZEBRA Z3 = ZEBRA Z3 (Epstein-Barr virus, UniProt P03206 P03206:1-140); experiment: EMSA; neither DIM nor DB domain; conditions: tags: N-terminal His6 (pET15b); label: biotin
Chain of ZEBRA Z3 (P03206 1-140, one chain of several): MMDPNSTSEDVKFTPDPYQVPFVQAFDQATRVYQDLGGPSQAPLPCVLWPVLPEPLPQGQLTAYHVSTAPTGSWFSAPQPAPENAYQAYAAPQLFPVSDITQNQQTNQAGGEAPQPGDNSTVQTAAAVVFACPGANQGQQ

ZEBRA Z2 = ZEBRA Z2 (Epstein-Barr virus, UniProt P03206 P03206:1-170); experiment: EMSA; neither DIM nor DB domain; conditions: tags: N-terminal His6 (pET15b); label: biotin
Chain of ZEBRA Z2 (P03206 1-170, one chain of several): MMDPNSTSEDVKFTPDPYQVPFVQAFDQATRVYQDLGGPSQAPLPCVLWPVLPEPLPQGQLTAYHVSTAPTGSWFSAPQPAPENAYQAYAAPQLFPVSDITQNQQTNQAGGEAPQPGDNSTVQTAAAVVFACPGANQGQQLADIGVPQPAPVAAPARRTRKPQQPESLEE

ZEBRA full-length (Z-FL) = ZEBRA full-length (Z-FL) (Epstein-Barr virus, UniProt P03206 P03206:1-245); experiment: EMSA; poly(dI-dC), 1 mM DTT, 4 C; conditions: tags: N-terminal His6 (pET15b); chain copies: 2; label: biotin
Chain of ZEBRA full-length (Z-FL) (P03206 whole entry, the tested form may be a part, one chain of several): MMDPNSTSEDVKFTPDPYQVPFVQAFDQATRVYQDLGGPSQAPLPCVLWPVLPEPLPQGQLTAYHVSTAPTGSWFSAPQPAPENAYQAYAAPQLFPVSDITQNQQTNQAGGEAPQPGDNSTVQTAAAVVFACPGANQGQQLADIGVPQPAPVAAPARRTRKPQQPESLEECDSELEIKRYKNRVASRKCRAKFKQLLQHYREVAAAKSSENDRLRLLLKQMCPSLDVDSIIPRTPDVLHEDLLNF

ZEBRA Z8 = ZEBRA Z8 (Epstein-Barr virus, UniProt P03206 P03206:195-245); experiment: EMSA; dimerization domain without DNA-binding domain; conditions: tags: N-terminal His6 (pET15b); label: biotin
Chain of ZEBRA Z8 (P03206 195-245, one chain of several): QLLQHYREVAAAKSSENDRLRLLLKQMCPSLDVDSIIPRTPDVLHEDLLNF

ZEBRA Z6 = ZEBRA Z6 (Epstein-Barr virus, UniProt P03206 SEQ:1-75); experiment: EMSA; efficiency almost equal to full-length ZEBRA; poly(dI-dC), 4 C; conditions: tags: N-terminal His6 (pET15b); chain copies: 2; label: biotin
Chain of ZEBRA Z6 (P03206 171-245): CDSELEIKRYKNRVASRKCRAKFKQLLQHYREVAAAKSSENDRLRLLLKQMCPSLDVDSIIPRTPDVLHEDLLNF

ZEBRA Z4 = ZEBRA Z4 (Epstein-Barr virus, UniProt P03206 SEQ:1-105); experiment: as above; conditions: tags: N-terminal His6 (pET15b); chain copies: 2; label: biotin
Chain of ZEBRA Z4 (P03206 141-245): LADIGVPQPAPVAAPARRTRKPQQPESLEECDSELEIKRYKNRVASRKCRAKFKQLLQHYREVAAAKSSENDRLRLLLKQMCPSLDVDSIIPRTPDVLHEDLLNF

B1: AP-1 probe (dsDNA)
DNA 1: AGCACTGACTCATGAAGT
DNA 2: TACTTCATGAGTCAGTGCT
B1: no binding (ZEBRA Z7); no binding (ZEBRA Z5); no binding (ZEBRA Z3). B1: no binding (ZEBRA Z2); binds (ZEBRA full-length (Z-FL)); no binding (ZEBRA Z8). B1: binds (ZEBRA Z6); binds (ZEBRA Z4).
